Drawing on patent US20260062456A1, this text covers MFI for two substances.

The target of assay [1] is human PD-1 and human TIGIT both stably expressed on Jurkat cells (Jurkat/PD-1/TIGIT cells). Nature of the assay: flow cytometry, Jurkat/PD-1/TIGIT cells, 20 nM. In general terms: Flow cytometry measures light scatter and fluorescence of single cells or particles in a stream.
The target in assay [2] is CD112R endogenously expressed on Jurkat/IL-2 reporter cells (Jurkat parental) (UniProt Q6DKI7). As to the kind of experiment: flow cytometry, Jurkat parental.
CD112R endogenously expressed on Jurkat/IL-2 reporter cells (Jurkat parental), sequence (Q6DKI7 whole entry): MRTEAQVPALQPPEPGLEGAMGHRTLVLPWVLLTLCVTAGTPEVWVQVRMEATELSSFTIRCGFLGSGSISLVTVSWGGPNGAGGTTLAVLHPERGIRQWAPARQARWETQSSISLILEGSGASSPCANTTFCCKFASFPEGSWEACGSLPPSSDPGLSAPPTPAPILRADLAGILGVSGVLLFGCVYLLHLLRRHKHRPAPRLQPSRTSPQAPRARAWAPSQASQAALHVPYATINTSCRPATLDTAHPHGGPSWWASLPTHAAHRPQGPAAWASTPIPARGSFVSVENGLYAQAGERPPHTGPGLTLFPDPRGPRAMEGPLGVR
The next assay deals with T1, rB7H6.Fc (human) (UniProt Q68D85).
T1 sequence (looked up): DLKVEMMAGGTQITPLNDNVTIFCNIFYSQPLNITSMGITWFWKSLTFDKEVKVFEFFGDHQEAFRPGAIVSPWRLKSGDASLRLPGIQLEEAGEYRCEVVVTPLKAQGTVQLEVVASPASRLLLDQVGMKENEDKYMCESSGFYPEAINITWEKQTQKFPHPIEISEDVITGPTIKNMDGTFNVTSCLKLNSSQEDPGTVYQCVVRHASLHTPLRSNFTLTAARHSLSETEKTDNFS
Nature of the assay: flow cytometry of yeast display strain stained with 16.6 nM rB7H6.Fc.

As for “non-stack variant PD-L1 IgV-Fc control (D43G/N45D/L56Q/V58A/G101G-ins (G101GG)) (Fc fusion)”, the MFI at 20 nM in assay [1] was 41400 MFI. The MFI at 33.3nM in assay [2] came out at 100 MFI.
In the case of “parental NKp30 strain (yeast-displayed wild-type NKp30 IgC-like domain) (from UniProt O14931 19-134) (receptor)”, in the assay with rB7H6.Fc (human), the MFI came to 90 MFI.
